Consider one substance from patent publication US20170355992A1.

In test [1] the target is prothrombin with an Alexa532 on the 271 cleavage site that was attached by mutating the arginine to a cysteine (UniProt P00734). The test can be described thus: FRET, Alexa488-FVa donor and Alexa532 prothrombin acceptor, with 2.5 µM RNA aptamer T18.3.
Test [2] has the same target. The test can be described thus: FRET, Alexa488-FVa donor and Alexa532 prothrombin acceptor, buffer control.

Consider “FVa with Alexa488 on the 539 residue (from UniProt P12259 29-2224)”, for which the figures for the emission percentage (FRET) in test [1] and in test [2] were 17.5% and 16.3%, respectively.
